Data reported in patent US20170319648A1 (BAO KANG BIOMEDICAL HEALTHCARE, published 2017).
Positions of bridges follow the written chain, without caps; N, C: chain ends. Non-standard residues stand in square brackets, D forms with d. No end group written: not given here. hCys = N[C@@H](CCS)C(=O)O

T1: TEAD
T1 chain: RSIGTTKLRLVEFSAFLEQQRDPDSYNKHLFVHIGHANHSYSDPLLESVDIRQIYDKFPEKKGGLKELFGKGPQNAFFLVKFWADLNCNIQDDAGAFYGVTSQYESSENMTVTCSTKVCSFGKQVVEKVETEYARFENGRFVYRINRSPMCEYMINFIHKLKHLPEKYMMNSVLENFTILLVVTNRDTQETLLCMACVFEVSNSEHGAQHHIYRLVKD


Target: T1, TEAD
Experiment: IC50 for TEAD binding; method not named in the example (TR-FRET test is the filing's screening method)

| IC50 | Binder |
| --- | --- |
| 0.025 µM | VPM[hCys]LRKLPCSFCDPPE (disulfide 4-13) [polypeptide of SEQ ID NO.: 9 (VPM(Hcy)LRKLPCSFCDPPE)] |
| 0.028 µM | VPMCLRKLPESFCHPPE (disulfide 4-13) [polypeptide of SEQ ID NO.: 8 (VPMCLRKLPESFCHPPE)] |
